# Reference: US20250092146A1, “ANTI-CCR8 ANTIBODIES, CONJUGATES, AND USES THEREOF” (Abilita Bio, Inc., priority 2023, published 2025)
# Tests used:
# hCCR8 = biological target: T1, hCCR8 (Homo sapiens, UniProt P51685); test: Flow cytometry binding of VHH-Fc fusion antibodies to hCCR8 on stably transfected HEK293 cells; details: for binding to hCCR8 expressed on HEK293 cells (in words): as Fc fusion antibodies
# T1 construct: expressed in transfected cells
# Experimental: VHH-Fc fusion antibodies were evaluated for their ability to bind to hCCR8 on stably transfected HEK293 cells by means of flow cytometry. Cells were incubated with different concentrations of the bivalent VHH-Fc fusions for 60 minutes at 4° C., followed by two washes with FACS buffer, followed by 30 minutes incubation at 4° C. with the Zenon R-Phycoerythrin Anti-human IgG (ThermoFisher Scientific, #Z-25455), and two additional washing steps. Data were plotted and fit using GraphPad Prism software. EC50 and Bmax values individual antibodies were calculated from the resulting dose-response curves. Bivalent VHH-Fc fusions (Seq ID NOs: 31, 33, and 87-103) of 19 different VHH domains (SEQ ID NOs: 27, 28, and 70-86) were tested for cell binding and results are shown in Table 7. […]
# (§1) VHH-Fc fusion DNA constructs were then generated comprising encoding humanized VHH sequences (SEQ ID NOs: 106-111) fused in frame to the human IgG1 (SEQ ID NO: 34) directly to the short hinge sequence in the pFuse expression vector, and were expressed, purified and analyzed for binding to HEK293 cells expressing human CCR8 as in Example 5. Binding curves for VHH-Fc antibodies comprised of parental VHH-1 and the humanized VHH derivatives VHH-1.2-Fc and VHH-1.3-Fc are shown in FIG. 9A. Binding curves for VHH-Fc antibodies comprised of parental VHH-2 and the humanized VHH derivatives VHH-2-Fc, VHH-2.2-Fc and VHH-2.3-Fc, are shown in FIG. 9B. Cell binding EC50 values, normalized Bmax (relative to respective parental clone) data and humanizing mutations are shown in Table 10 below.
# Approaches such as in vitro affinity maturation and rational mutagenesis can be performed to regain binding affinity and/or stability lost through humanization. In vitro affinity maturation generally involves building and amino acid substitution library where amino acid positions are varied across the CDRs and/or framework at a defined set of positions using sets of amino acids chosen to introduce new chemical diversity. The paratope residues within the CDR regions are of course key to antigen binding and care must be taken not to disrupt important structures while attempting to evolve improve antibody behavior. One approach to identify positions that are important to the maintenance of binding properties is to perform paratope mapping using single scanning alanine substitutions across antibody CDR regions. In this approach, residues that are critical to the maintenance of antibody binding to the antigen can be identified and at the same time permissive sites can be identified where it may be possible to make substitutions of other amino acids desirable for subsequent affinity maturation library construction. Site directed mutagenesis was used to make single alanine substitutions at each residue in the CDRs of VHH-1 (SEQ ID NO: 27) and VHH-2 (SEQ ID NO: 28). Changes in VHH-1 CDR amino acids to alanine are indicated in Table 11 (SEQ ID NOs: 112-137) and for VHH-2 CDRs (SEQ ID NO: 138-162) in Table 12. Mutation positions and residue changes to alanine with respect to the in the parental VHH sequences are referenced by their IMGT position. VHH domains containing the indicated modified CDR-1, CDR-2 or CDR-3 domains were used to construct Fc fusions by direct grafting to the short hinge of the human Fc domain (SEQ ID NO: 34). VHH-Fc constructs were expressed, purified and analyzed for binding to HEK293 cells expressing hCCR8 and the results are reported in Table 11 and Table 12. EC50 values are reported for each Fc fusion antibody containing a modified CDR, along with its respective Bmax value normalized to the to the matched wild type VHH-1-Fc or VHH-2-Fc fusion antibody.
# [1] = biological target: T2, HuT-78 cells that naturally express human CCR8 (Homo sapiens, UniProt P51685); test: Flow cytometry binding of yeast-display optimized VHH-Fc antibodies to HuT-78 cells; details: Table 13; for EC50: clones tested as VHH-Fc fusions (human IgG1 Fc), HuT-78 cells; for Normalized Bmax (%): normalized to VHH-1 or VHH-2 depending on clone family
# T2 construct: HuT-78 cells that naturally express human CCR8 were used as target cells; endogenous in cells; host or cells: HuT-78
# Excerpt: Top VHH sequences were chosen from the FACS sorted populations based on an analysis of improved binding performance relative to the parental sequences and evidence of sequence enrichment by NGS. Candidate VHH were then cloned as VHH-Fc fusions to the short hinge of the IgG1 Fc domain (SEQ ID NO: 34), expressed in HEK293 cells as described earlier and purified for binding evaluation. Bmax values are shown as normalized to VHH-1 or VHH-2 depending on the clone family. […] Mutations are referenced by position according to the IMGT definition.
# [2] = Production and purification of humanized VHH-Fc from cells; details: most humanized variants
# Excerpt: as §1
# Humanization within the framework regions of VHH and other antibodies is known to often have negative impacts of on protein properties such as destabilization of the VHH fold or loss of binding affinity. This is most common when humanized versions of antibodies are constructed by “CDR grafting”, where the individual CDRs are transferred directly to a fully human framework.
# T1 sequence (P51685 whole entry, the tested form may be a part): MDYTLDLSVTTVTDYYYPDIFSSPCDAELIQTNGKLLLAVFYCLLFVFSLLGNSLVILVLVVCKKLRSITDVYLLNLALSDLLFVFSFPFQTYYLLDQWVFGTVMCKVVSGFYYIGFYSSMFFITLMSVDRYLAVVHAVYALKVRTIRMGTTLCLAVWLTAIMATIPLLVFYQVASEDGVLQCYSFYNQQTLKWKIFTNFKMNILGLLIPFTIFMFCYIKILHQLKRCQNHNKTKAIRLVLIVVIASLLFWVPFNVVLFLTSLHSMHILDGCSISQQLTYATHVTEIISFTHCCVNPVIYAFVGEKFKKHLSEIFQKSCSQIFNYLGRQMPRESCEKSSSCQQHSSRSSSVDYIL
# T2 sequence (P51685 whole entry, the tested form may be a part): as above
Molecule,EC50 [1] [nM],Normalized Bmax (%) [1] [%],binding to hCCR8 expressed on HEK293 cells (in words) (hCCR8),also measured
"VHH-1.2: humanized VHH-1, version 2, SEQ ID NO: 107 (protein) VHH: EVQLVESGGGLVQPGGSLRLSCAASGSTSSIRRIGWYRQAPGKGLEWVARFSSGGGTNYADSVKGRFTISGDNSKNTMYLQMNSLRAEDTAVYYCSARRLLGTSRVDYWGQGTTVTVSS",,,maintained their hCCR8 binding properties,
"VHH-1.3-2: VHH-1.3 variant L110V, SEQ ID NO: 187; tested as Fc fusion (protein) VHH: EVQLVESGGGLVQPGGSLRLSCAASGSTSSIRRIGWYRQAPGKGRELVARFSSGGGTNYADSVKGRFTISGDNSKNTMYLQMNSLRAEDTAVYYCSARRLVGTSRVDYWGQGTTVTVSS",2.21,115.7,,
"VHH-1.3-21: VHH-1.3 variant A25V, R38G, S57I, G81A, SEQ ID NO: 206; tested as Fc fusion (protein) VHH: EVQLVESGGGLVQPGGSLRLSCAVSGSTSSIRGIGWYRQAPGKGRELVARFISGGGTNYADSVKGRFTISADNSKNTMYLQMNSLRAEDTAVYYCSARRLLGTSRVDYWGQGTQVTVSS",1.62,133.9,,
"VHH-1.1: humanized VHH-1, version 1, SEQ ID NO: 106 (protein) VHH: EVQLVESGGGLVQPGGSLRLSCAASGSTSSIRRIGWVRQAPGKGLEWVSRFSSGGGTNYADSVKGRFTISRDNSKNTLYLQMNSLRAEDTAVYYCAKRRLLGTSRVDYWGQGTTVTVSS",,,,stability / producibility after humanization [2]: could not be produced and purified from cells
"VHH-1.3-1: VHH-1.3 variant G64S, SEQ ID NO: 186; tested as Fc fusion (protein) VHH: EVQLVESGGGLVQPGGSLRLSCAASGSTSSIRRIGWYRQAPGKGRELVARFSSGGSTNYADSVKGRFTISGDNSKNTMYLQMNSLRAEDTAVYYCSARRLLGTSRVDYWGQGTTVTVSS",2.03,85.3,,
"VHH-1.3: humanized VHH-1, version 3, SEQ ID NO: 108; Table 13 tested as Fc fusion (protein) VHH: EVQLVESGGGLVQPGGSLRLSCAASGSTSSIRRIGWYRQAPGKGRELVARFSSGGGTNYADSVKGRFTISGDNSKNTMYLQMNSLRAEDTAVYYCSARRLLGTSRVDYWGQGTTVTVSS",5.46,88.6,maintained their hCCR8 binding properties,
"VHH-2.2: humanized VHH-2, version 2, SEQ ID NO: 110 (protein) VHH: EVQLVESGGGLVQPGGSLRLSCAVSGSTSTINRFAWYRQAPGKGLEWVAATSSRTSPNYADSVKGRFTFSRDNSKNTVYLQMNSLRAEDTAVYYCQARMAMGSSQVVYWGQGTTVTVSS",,,maintained their hCCR8 binding properties,
"VHH-2.1: humanized VHH-2, version 1, SEQ ID NO: 109 (protein) VHH: EVQLVESGGGLVQPGGSLRLSCAASGSTSTINRFAWVRQAPGKGLEWVSATSSRTSPNYADSVKGRFTISRDNSKNTLYLQMNSLRAEDTAVYYCAKRMAMGSSQVVYWGQGTTVTVSS",,,,stability / producibility after humanization [2]: could not be produced and purified from cells

# Continued, in another order:
EC50 [1] [nM],Normalized Bmax (%) [1] [%],Molecule,binding to hCCR8 expressed on HEK293 cells (in words) (hCCR8),also measured
0.12,131.9,"VHH-2.3-2: VHH-2.3 variant D81G, M108K, SEQ ID NO: 208; tested as Fc fusion (protein) VHH: EVQLVESGGGLVQPGGSLRLSCAVSGSTSTINRFAWYRQAPGKGRELVAATSSRTSPNYADSVKGRFTFSRGNSKNTVYLQMNSLRAEDTAVYYCQARKAMGSSQVVYWGQGTTVTVSS",,
1.7,83.3,"VHH-2.3-3: VHH-2.3 variant P65L, SEQ ID NO: 209; tested as Fc fusion (protein) VHH: EVQLVESGGGLVQPGGSLRLSCAVSGSTSTINRFAWYRQAPGKGRELVAATSSRTSLNYADSVKGRFTFSRDNSKNTVYLQMNSLRAEDTAVYYCQARMAMGSSQVVYWGQGTTVTVSS",,
0.23,118.3,"VHH-2.3-1: VHH-2.3 variant D81G, SEQ ID NO: 207; tested as Fc fusion (protein) VHH: EVQLVESGGGLVQPGGSLRLSCAVSGSTSTINRFAWYRQAPGKGRELVAATSSRTSPNYADSVKGRFTFSRGNSKNTVYLQMNSLRAEDTAVYYCQARMAMGSSQVVYWGQGTTVTVSS",,
1.19,88.8,"VHH-2.3: humanized VHH-2, version 3, SEQ ID NO: 111; Table 13 tested as Fc fusion (protein) VHH: EVQLVESGGGLVQPGGSLRLSCAVSGSTSTINRFAWYRQAPGKGRELVAATSSRTSPNYADSVKGRFTFSRDNSKNTVYLQMNSLRAEDTAVYYCQARMAMGSSQVVYWGQGTTVTVSS",maintained their hCCR8 binding properties,
0.24,100.0,"VHH-2: llama anti-hCCR8 VHH, SEQ ID NO: 28; in Tables 12 and 13 tested as human IgG1 Fc fusion (protein) VHH: QVQLQESGGGLVQAGGSLRLTCAVSGSTSTINRFAWYRQAPGKQRELVAATSSRTSPNYADSVKGRFRFSRDNARSAVYLQMDNLRPEDTAVYFCQARMAMGSSQVVYWGLGTQVTVSS",,"EC50 (hCCR8; Table 12, VHH-2 CDR alanine mutants as human Fc fusions, HEK293 hCCR8): 1.3 nM; % Bmax (hCCR8; Table 12, normalized to wild type VHH-2-Fc): 100%"
